Numbered stars: 1 amine (or outer) side, 2 acyl side, 3 side chain; on linkers, the order of the positions; unused ones are H or OH. Square brackets hold non-standard residues; d marks the D form. Side chains are listed from the residue outwards. Ends that are not written are not given here. * marks the point of attachment. OC17H32COOH = fatty diacid acyl group -OC17H32COOH on the linker; C20 diacid = O=C(O)CCCCCCCCCCCCCCCCCCC(=O)*; C18 diacid = O=C(O)CCCCCCCCCCCCCCCCC(=O)*; γGlu = O=C(O)[C@H](CCC(=O)[*:2])N[*:1]; Palmitoyl = CCCCCCCCCCCCCCCC(=O)*; AEEA = NCCOCCOCC(=O)O; Aib = CC(C)(N)C(=O)O
B1: Compound 79 (peptide)
peptide: HXQGTFTSDKSKYLXERAAKEFIXWLEAGGPSSG
modifications: not fully specified; Lys 10 side chain -Ado-Ado-γE-OC17H32COOH; C-terminal amide

The binders below were run against human GLP-1 receptor (human, UniProt P43220 24-463) (assay: cell-based or functional assay).

Row | Binder | EC50 of GLP-1 receptor mediated cAMP production
1 | H[Aib]QGTFTSDYSKYLDEKRAK([γGlu-γGlu-Palmitoyl])EFIAWLEAGGPSSG-NH2 (not fully specified; printed as HAibQGTFTSDYSKYLDEKRAK*EFIAWLEAGGPSSG-Amid) [Compound 57] | 0.094 nM
2 | H[Aib]QGTFTSDYSKYLEERKAK([γGlu-γGlu-Palmitoyl])EFVEWLEGGPSSG-NH2 (not fully specified; printed as HAibQGTFTSDYSKYLEERKAK*EFVEWLEGGPSSG-Amid) [Compound 62] | 0.313 nM
3 | H[Aib]QGTFTSDYSKYLDERKAK([AEEA-AEEA-γGlu-OC17H32COOH])EFIEWLEGGPSSG-NH2 (not fully specified; printed as HAibQGTFTSDYSKYLDERKAK**EFIEWLEGGPSSG-Amid) [Compound 66] | 0.051 nM
4 | H[Aib]QGTFTSDYSKYLEERKAK([AEEA-AEEA-γGlu-C20 diacid])EFIAWLEGGPSSG-NH2 (not fully specified; printed as HAibQGTFTSDYSKYLEERKAK***EFIAWLEGGPSSG-Amid) [Compound 68] | 0.13 nM
5 | H[Aib]QGTFTSDYSKYLDERKAK([γGlu-γGlu-Palmitoyl])EFVEWLEGGPSSG-NH2 (not fully specified; printed as HAibQGTFTSDYSKYLDERKAK*EFVEWLEGGPSSG-Amid) [Compound 69] | 0.778 nM
6 | H[Aib]QGTFTSDYSKYLEEKRAK([AEEA-AEEA-γGlu-C18 diacid])EFVAWLEGGPSSG-NH2 (not fully specified; printed as HAibQGTFTSDYSKYLEEKRAK**EFVAWLEGGPSSG-Amid) [Compound 74] | 0.842 nM
7 | H[Aib]QGTFTSDYSKYLEEKRAK([γGlu-γGlu-Palmitoyl])EFVEWLEGGPSSG-NH2 (not fully specified; printed as HAibQGTFTSDYSKYLEEKRAK*EFVEWLEGGPSSG-Amid) [Compound 76] | 0.22 nM
8 | B1 | 0.033 nM

What follows are binders tested against GC receptor (assay: cell-based or functional assay).

Row | Binder | EC50 of GC receptor mediated cAMP production
9 | H[Aib]QGTFTSDYSKYLDEKRAK([γGlu-γGlu-Palmitoyl])EFIAWLEAGGPSSG-NH2 (not fully specified; printed as HAibQGTFTSDYSKYLDEKRAK*EFIAWLEAGGPSSG-Amid) [Compound 57] | 0.081 nM
10 | H[Aib]QGTFTSDYSKYLEERKAK([γGlu-γGlu-Palmitoyl])EFVEWLEGGPSSG-NH2 (not fully specified; printed as HAibQGTFTSDYSKYLEERKAK*EFVEWLEGGPSSG-Amid) [Compound 62] | 0.156 nM
11 | H[Aib]QGTFTSDYSKYLDERKAK([AEEA-AEEA-γGlu-OC17H32COOH])EFIEWLEGGPSSG-NH2 (not fully specified; printed as HAibQGTFTSDYSKYLDERKAK**EFIEWLEGGPSSG-Amid) [Compound 66] | 0.058 nM
12 | H[Aib]QGTFTSDYSKYLEERKAK([AEEA-AEEA-γGlu-C20 diacid])EFIAWLEGGPSSG-NH2 (not fully specified; printed as HAibQGTFTSDYSKYLEERKAK***EFIAWLEGGPSSG-Amid) [Compound 68] | 0.314 nM
13 | H[Aib]QGTFTSDYSKYLDERKAK([γGlu-γGlu-Palmitoyl])EFVEWLEGGPSSG-NH2 (not fully specified; printed as HAibQGTFTSDYSKYLDERKAK*EFVEWLEGGPSSG-Amid) [Compound 69] | 0.261 nM
14 | H[Aib]QGTFTSDYSKYLEEKRAK([AEEA-AEEA-γGlu-C18 diacid])EFVAWLEGGPSSG-NH2 (not fully specified; printed as HAibQGTFTSDYSKYLEEKRAK**EFVAWLEGGPSSG-Amid) [Compound 74] | 0.725 nM
15 | H[Aib]QGTFTSDYSKYLEEKRAK([γGlu-γGlu-Palmitoyl])EFVEWLEGGPSSG-NH2 (not fully specified; printed as HAibQGTFTSDYSKYLEEKRAK*EFVEWLEGGPSSG-Amid) [Compound 76] | 0.191 nM
16 | B1 | 0.025 nM

Reference: patent publication US20240252592A1 (TIANJIN INSTITUTE OF PHARMACEUTICAL RESEARCH, published 2024)
